Experimental data reported in patent publication WO2012119989A2 (dated 2012).
Positions count from the first letter of the chain named.

Experiments:
[1] = target: T1, Cell adhesion molecule-1 (CADM1), human, on the cell surface (human) (UniProt Q9BY67); assay: cell-based or functional assay
T1 sequence (looked up): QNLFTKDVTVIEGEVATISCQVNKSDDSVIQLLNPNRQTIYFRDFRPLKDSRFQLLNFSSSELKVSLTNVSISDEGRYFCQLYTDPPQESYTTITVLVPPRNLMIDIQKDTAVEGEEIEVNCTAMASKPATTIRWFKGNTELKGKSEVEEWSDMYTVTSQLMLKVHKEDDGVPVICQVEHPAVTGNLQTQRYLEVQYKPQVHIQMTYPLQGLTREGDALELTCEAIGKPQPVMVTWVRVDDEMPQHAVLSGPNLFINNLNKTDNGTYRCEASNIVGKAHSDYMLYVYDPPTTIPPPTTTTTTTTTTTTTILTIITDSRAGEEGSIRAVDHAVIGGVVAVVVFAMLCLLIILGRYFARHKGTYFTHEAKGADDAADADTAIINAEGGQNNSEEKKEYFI

[2] = target: T1, Cell adhesion molecule-1 (CADM1), human, on the cell surface (human); assay: flow cytometry, DU145 cells
[3] = target: T1, Cell adhesion molecule-1 (CADM1), human, on the cell surface (human); assay: flow cytometry, LnCaP cells
[4] = target: T2, CADM1 extracellular domain expressed by the CHO-Flpln CADM1 cell line (human) (UniProt Q9BY67); assay: flow cytometry, CHO-Flpln CADM1 cells
T2 sequence: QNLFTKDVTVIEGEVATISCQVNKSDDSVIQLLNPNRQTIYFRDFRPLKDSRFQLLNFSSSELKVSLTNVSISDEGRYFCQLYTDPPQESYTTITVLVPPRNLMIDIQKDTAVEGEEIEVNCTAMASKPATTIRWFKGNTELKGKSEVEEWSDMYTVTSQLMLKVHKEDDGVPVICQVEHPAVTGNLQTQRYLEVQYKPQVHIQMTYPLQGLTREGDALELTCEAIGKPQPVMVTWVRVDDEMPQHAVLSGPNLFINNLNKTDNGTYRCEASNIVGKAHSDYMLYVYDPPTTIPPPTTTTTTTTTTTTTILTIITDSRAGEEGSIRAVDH

[5] = target: T1, Cell adhesion molecule-1 (CADM1), human, on the cell surface (human); assay: flow cytometry, LnCaP cells (second table of Example 15)
[6] = target: T1, Cell adhesion molecule-1 (CADM1), human, on the cell surface (human); assay: flow cytometry, SKMEL28 melanoma cells, antibody 10ug/ml
[7] = target: T1, Cell adhesion molecule-1 (CADM1), human, on the cell surface (human); assay: flow cytometry, Lovo colon cancer cells, antibody 10ug/ml
[8] = target: T1, Cell adhesion molecule-1 (CADM1), human, on the cell surface (human); assay: flow cytometry, SW480 colon cancer cells, antibody 10ug/ml
[9] = target: T1, Cell adhesion molecule-1 (CADM1), human, on the cell surface (human); assay: flow cytometry, Caco-2 colon cancer cells, antibody 10ug/ml
[10] = target: T1, Cell adhesion molecule-1 (CADM1), human, on the cell surface (human); assay: flow cytometry, MDA-MB-435S melanoma cells, antibody 10ug/ml
[11] = target: T1, Cell adhesion molecule-1 (CADM1), human, on the cell surface (human); assay: flow cytometry, LnCaP prostate cancer cells, antibody 10ug/ml
[12] = target: T1, Cell adhesion molecule-1 (CADM1), human, on the cell surface (human); assay: flow cytometry, DU145 prostate cancer cells, antibody 10ug/ml
[13] = target: T2, CADM1 extracellular domain expressed by the CHO-Flpln CADM1 cell line (human); assay: flow cytometry, CHO-Flpln CADM1 cells (second table of Example 15)
[14] = target: T3, Cell adhesion molecule-1 (CADM1), human, on the cell surface (human, UniProt Q9BY67 45-442); assay: flow cytometry titration, SKOV3 ovary cancer cells
T3 construct: whole, on cells; also called TSLC1; IGSF4
T3 sequence (looked up): T1 sequence (looked up)

[15] = target: T4, CADM2, human, on transfected CHO cells (human, UniProt Q8N3J6 25-435); assay: flow cytometry, CHO cells transiently transfected with CADM2
T4 construct: whole, on cells
T4 sequence (looked up): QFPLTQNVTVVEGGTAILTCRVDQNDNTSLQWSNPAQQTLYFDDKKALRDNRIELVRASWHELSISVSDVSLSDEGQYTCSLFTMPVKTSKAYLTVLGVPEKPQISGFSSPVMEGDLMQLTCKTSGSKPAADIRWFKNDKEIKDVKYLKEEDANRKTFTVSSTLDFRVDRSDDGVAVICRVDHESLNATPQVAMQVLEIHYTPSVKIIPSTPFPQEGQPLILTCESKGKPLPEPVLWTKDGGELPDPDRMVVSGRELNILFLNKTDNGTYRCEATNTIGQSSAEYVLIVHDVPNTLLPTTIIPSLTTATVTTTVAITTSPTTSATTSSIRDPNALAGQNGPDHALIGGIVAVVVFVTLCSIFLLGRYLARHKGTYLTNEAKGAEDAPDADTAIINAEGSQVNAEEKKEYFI

[16] = target: T5, CADM3, human, on transfected CHO cells (human, UniProt Q8N126 25-398); assay: flow cytometry, CHO cells transiently transfected with CADM3
T5 construct: whole, on cells; also called CADSV13 (OCR)
T5 sequence (looked up): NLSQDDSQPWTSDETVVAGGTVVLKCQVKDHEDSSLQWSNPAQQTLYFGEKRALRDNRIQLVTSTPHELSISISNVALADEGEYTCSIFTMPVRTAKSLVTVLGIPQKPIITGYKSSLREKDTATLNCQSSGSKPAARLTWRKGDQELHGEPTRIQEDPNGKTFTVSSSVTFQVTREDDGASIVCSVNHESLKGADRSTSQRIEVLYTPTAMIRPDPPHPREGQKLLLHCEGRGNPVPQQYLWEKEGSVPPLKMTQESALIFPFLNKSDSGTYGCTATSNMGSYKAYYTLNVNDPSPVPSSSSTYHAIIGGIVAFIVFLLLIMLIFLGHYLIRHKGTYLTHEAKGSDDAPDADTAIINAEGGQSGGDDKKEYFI

[17] = target: T6, CADM4, human, on transfected CHO cells (human, UniProt Q8NFZ8 21-388); assay: flow cytometry, CHO cells transiently transfected with CADM4
T6 construct: whole, on cells; also called CAD 4
T6 sequence (looked up): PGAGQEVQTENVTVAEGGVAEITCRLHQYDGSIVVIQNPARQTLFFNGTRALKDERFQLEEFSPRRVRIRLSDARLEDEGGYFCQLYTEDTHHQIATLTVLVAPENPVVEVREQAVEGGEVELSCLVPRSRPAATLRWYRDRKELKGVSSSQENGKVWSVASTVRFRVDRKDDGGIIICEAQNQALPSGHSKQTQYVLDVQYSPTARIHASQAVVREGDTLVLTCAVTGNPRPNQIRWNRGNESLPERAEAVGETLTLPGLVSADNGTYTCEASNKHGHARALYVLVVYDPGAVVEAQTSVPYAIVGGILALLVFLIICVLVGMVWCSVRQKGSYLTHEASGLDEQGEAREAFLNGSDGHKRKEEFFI

[18] = target: T3, Cell adhesion molecule-1 (CADM1), …; assay: flow cytometry titration, A375 melanoma cells, human IgG1 isotype
[19] = target: T3, Cell adhesion molecule-1 (CADM1), …; assay: flow cytometry titration, A375 melanoma cells, mouse IgG2a isotype

B1: Antibody-2 (antibody, V domains shown)
VH: EVQLLESGGGLVQPGGSLRLSCAASGFTFSKYEMVWVRQAPGKGLEWVSYIVPSGGATLYADSVKGRFTISRDNSKNTLYLQMNSLRAEDTAVYYCARVKAGVFDYWGQGTL
VL: QYELTQPPSVSVSPGQTARITCSGDRLGETYVSWYQQKPGQSPVLVIFEDNKRPSGIPERFSGSNSGNTATLTVSGTRAMDEADYYCQAWVGSTPFVFGTGTKVTVL
Binder B1 has a % cell viability at 100 nM, Hum-ZAP assay, A375 melanoma cells [1] of 26.2%, a % cell viability at 100 nM, Hum-ZAP assay, Caco-2 colon cancer cells [1] of 55.9% and a % cell viability at 100 nM, Hum-ZAP assay, Lovo colon cancer cells [1] of 34.3%. The % cell viability at 100 nM, Hum-ZAP assay, MDA-MB-435S melanoma cells [1] was 27.3%, the % cell viability at 100 nM, Hum-ZAP assay, SKMEL28 melanoma cells [1] was 36.7% and the % cell viability at 100 nM, Hum-ZAP assay, SW480 colon cancer cells [1] was 20.6%. The % of viability, Hum-ZAP internalization assay, positive CADM1 cell line, antibody 10-6 M [1] was 85.1%, the % of viability, Hum-ZAP internalization assay, positive CADM1 cell line, antibody 10-7 M [1] was 29.3% and the % of viability, Hum-ZAP internalization assay, positive CADM1 cell line, antibody 10-8 M [1] was 14%. It also gave a percent of cells bound [2] of 99.5%, a percent of cells bound [3] of 99.5% and a percent of cells bound [4] of 99.9%. It also gave a percent of cells bound [5] of 98.6%, a % of fluorescence cells [6] of 100% and a % of fluorescence cells [7] of 99.2%. For the same binder, the % of fluorescence cells [8] was 100%, the % of fluorescence cells [9] was 99.6% and the % of fluorescence cells [10] was 100%. The % of fluorescence cells [11] was 98.6%, the % of fluorescence cells [12] was 99.5% and the percent of cells bound [13] was 98.3%.

B2: AB2 NF (antibody, V domains shown)
VH: B1 VH
VL: B1 VL
With B2 the percent of cells bound [5] was 96.8% and the percent of cells bound [13] was 98.5%.

B3: Antibody-1 (antibody, V domains shown)
VH: EVQLLESGGGLVQPGGSLRLSCAASGFTFSFYPMQWVRQAPGKGLEWVSSIGSSGGYTKYADSVKGRFTISRDNSKNTLYLQMNSLRAEDTAVYYCTRDRWYFDLWGRGTL
VL: QSELTQDPAVSVALGHTVKITCQGDTFRTYYASWYQQKPGQAPLLVVYGENKRPSGIPDRFSGSTSGNTASLTITGAQAEDEADYYCHSRDNSGHLHVFGGGTKVTVL
B3 showed a % cell viability at 100 nM, Hum-ZAP assay, DU145 prostate cancer cells [1] of 60.6%, a percent of cells bound [2] of 99% and a percent of cells bound [3] of 99.6%. For the same binder, the percent of cells bound [4] was 99.8% and the % of fluorescence cells [12] was 99%.

B4: Antibody-3 (antibody, V domains shown)
VH: B3 VH with F31R, Q35Y, G52S, Y57L, K59H, T97A, D99G, R100D
VL: QYELTQDPAVSVALGQTVRITCQGDSLRTYYASWYQQRPGQAPVLVIYGDNDRPSGIPDRFSGSTSRNTASLTITGAQAEDEAHYYCNSRDSSGNHIFATGTKVTVL
notes: also called AB3; AB 3
With B4 the percent of cells bound [4] was 99.7%, the EC50 [14] was 1 nM and the binding result [15] was “no binding (tested: 10ug/ml (protocol of Example 19))”. B4: no binding (tested: 10ug/ml (protocol of Example 19)) [16]; no binding (tested: 10ug/ml (protocol of Example 19)) [17].

B5: Antibody-10 (antibody, V domains shown)
VH: B3 VH with F31M, P33T, Q35S, G52W, Y57K, K59S, T97A, R98K, D99E, R100S
VL: QYELTQDPAVSVALGQTVRITCQGHSLRSYYATWYQQKPGQAPVLVMYGENNRPSGIPDRFSGSSSGNTASLTITGAQAEDEADYYCNSRDNSGNHLVFGGGTNLTVL
notes: also called AB10; AB 1 0
For B5, the percent of cells bound [4] was 99.8%, the binding result [15] was “no binding (tested: 10ug/ml (protocol of Example 19))” and the binding result [16] was “no binding (tested: 10ug/ml (protocol of Example 19))”. The binding result [17] was “no binding (tested: 10ug/ml (protocol of Example 19))”, the percent of cells bound [13] was 98.7% and the EC50 [18] was 1.26 nM.

B6: anti-CADM1 AB-10, mouse IgG2a isotype (antibody, V domains shown)
VH: B3 VH with F31M, P33T, Q35S, G52W, Y57K, K59S, T97A, R98K, D99E, R100S
VL: B5 VL
notes: also called AB-10 mouse lgG2a
In the case of B6, the EC50 [19] is reported as 0.76 nM.
